Test results taken from patent publication US20250074982A1 (CITY OF HOPE, published 2025).

Target: CS1 on MM.1S multiple myeloma cells (human, UniProt Q9NQ25 23-335)
Assay: cell-based or functional assay

B1: CS1-dbBiTE (anti-CS1-huOKT3 dual specific bivalent T-cell engager: intact elotuzumab clicked to intact humanized OKT3 at their reduced hinge regions) (bispecific antibody, human IgG1, kappa)
heavy: not shown
light: DIQMTQSPSSLSASVGDRVTITCKASQDVGIAVAWYQQKPGKVPKLLIYWASTRHTGVPDRFSGSGSGTDFTLTISSLQPEDVATYYCQQYSSYPYTFGQGTKVEIKRTVAAPSVFIFPPSDEQLKSGTASVVCLLNNFYPREAKVQWKVDNALQSGNSQESVTEQDSKDSTYSLSSTLTLSKADYEKHKVYACEVTHQGLSSPVTKSFNRGEC
VH: QLVQSGGGVVQPGRSLRLSCKASGYTFTRYTMHWVRQAPGKGLEWIGYINPSRGYTNYNQKVKDRFTISTDKSKSTAFLQMDSLRPEDTAVYYCARYYDDHYCLDYWGQGTPVTV
VL: DIQMTQSPSSLSASVGDRVTITCSASSSVSYMNWYQQTPGKAPKRWIYDTSKLASGVPSRFSGSGSGTDYTFTISSLQPEDIATYYCQQWSSNPFTFGQGTKLQITR
modifications: one PEG5-N3 per light chain; reduced cysteines of the heavy chain alkylated with bromoacetamide-PEG5-N3, an average of 3 PEG5-N3/heavy chain; one DBCO/light chain (bromoacetamido-DBCO on reduced cysteine); reduced cysteines alkylated with bromoacetamido-DBCO, an average of 3 DBCO/heavy chain; clicked to PEG5-N3 on huOKT3
IFN-γ and TNF-α positive cells detected by intracellular cytokine staining: > 2 fold
